Measurements taken from patent publication US20150086562A1 (BIOATLA, published 2015).

Molecular target: T1, recombinant CD22 extracellular domain
T1 construct: Kept apart from m18, which is cell-surface CD22; also called CD22 (analyte in the BIAcore runs); CD22 ECD
Assay: The sheet does not state the method. The column 'KD (nM)' stands beside the confocal data, and the target form is taken from FIGURE 18. FIGURE 18 prints 0.25 for this clone.
Description: BIAcore 3000, GE Healthcare was used to determine binding curves and kinetic parameters. An anti-human Fc (1.8 mg/ml) was diluted to a concentration of 50 ug/ml in NaOAc buffer (10 mM, pH 4.8) and coupled to the carboxymethylated dextran matrix of a CM-5 sensor chip using the manufacturer's amine-coupling chemistry as described in the BIAcore systems manual. Using the surface preparation wizard aiming for 10000RU, the carboxyl groups on the sensor surfaces were first activated with NHS/EDC followed by the addition of the anti-human Fc. The remaining activated groups were blocked by the injection of 1M ethanolamine. Each of the flow cells was coupled individually. Employing these conditions, the four flow cell surfaces containing 7554-9571 RU of anti-human Fc were prepared. In preliminary experiments, it was determine that three injections (15 ul at 30 ul/min) 100 mM H₃PO₄/0.05% CHAPS would efficiently remove the bound immunoglobulin and preserve the binding capacity of the immobilized anti-human Fc.
Experiments were performed on the BIAcore 3000 at 25° C. and a flow rate of 30 ul/min. […] Using the 1:1 model in BIAevaluation 4.1, both a local fit and global fit was done for both dissociation (kd, [s−1] and association (ka, [M⁻¹s⁻¹]) and the dissociation constant (KD, [M]) calculated (kd/ka).

Kd: 0.26 nM
B1: VM1011 (antibody, V domains shown)
VH: QVQLQESGPGLVKPSQTLSLTCTVSGYVFTSYWLHWIRQPPGKGLEWIGYINPRNDYTEYNRIFKGRVTITADKSTSTAYMELSSLRSEDTAVYYCARRGITTFYWGQG
VL: EIVLTQSPATLSLSPGERATLSCKSSQSVLYSAVEKNYLAWYQQKPGQAPRLLIYWASTRERGIPDRFSGSGSGTDFTLTISRLEPEDFAVYYCKQYLSSWTFGQG
notes: Humanized antibody with human constant region; also called anti-CD22 Mab clone VM1011
